# IntAct's records for PubMed 29892012
# B1: Galectin-8 (Homo sapiens), O00214 (parent)
# chain: MMLSLNNLQNIIYNPVIPFVGTIPDQLDPGTLIVIRGHVPSDADRFQVDLQNGSSMKPRADVAFHFNPRFKRAGCIVCNTLINEKWGREEITYDTPFKREKSFEIVIMVLKDKFQVAVNGKHTLLYGHRIGPEKIDTLGIYGKVNIHSIGFSFSSDLQSTQASSLELTEISRENVPKSGTPQLRLPFAARLNTPMGPGRTVVVKGEVNANAKSFNVDLLAGKSKDIALHLNPRLNIKAFVRNSFLQESWGEEERNITSFPFSPGMYFEMIIYCDVREFKVAVNGVHSLEYKHRFKELSSIDTLEINGDIHLLEVRSW
# partner: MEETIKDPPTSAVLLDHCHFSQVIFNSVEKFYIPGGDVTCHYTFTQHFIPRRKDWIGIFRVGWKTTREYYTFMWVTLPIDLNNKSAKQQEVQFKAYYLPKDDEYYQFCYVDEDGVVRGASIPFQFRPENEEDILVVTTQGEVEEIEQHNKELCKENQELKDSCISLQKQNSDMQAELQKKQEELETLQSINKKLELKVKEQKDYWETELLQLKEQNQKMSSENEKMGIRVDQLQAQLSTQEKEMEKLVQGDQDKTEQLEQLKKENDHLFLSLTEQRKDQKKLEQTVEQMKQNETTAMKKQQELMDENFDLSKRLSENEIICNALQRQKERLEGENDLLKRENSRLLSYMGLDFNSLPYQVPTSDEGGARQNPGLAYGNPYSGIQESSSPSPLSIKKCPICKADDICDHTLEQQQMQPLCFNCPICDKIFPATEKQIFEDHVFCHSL
# B2: Histone-lysine N-methyltransferase SETD5 (Homo sapiens), Q9C0A6 (parent)
# chain: MSIAIPLGVTTSDTSYSDMAAGSDPESVEASPAVNEKSVYSTHNYGTTQRHGCRGLPYATIIPRSDLNGLPSPVEERCGDSPNSEGETVPTWCPCGLSQDGFLLNCDKCRGMSRGKVIRLHRRKQDNISGGDSSATESWDEELSPSTVLYTATQHTPTSITLTVRRTKPKKRKKSPEKGRAAPKTKKIKNSPSEAQNLDENTTEGWENRIRLWTDQYEEAFTNQYSADVQNALEQHLHSSKEFVGKPTILDTINKTELACNNTVIGSQMQLQLGRVTRVQKHRKILRAARDLALDTLIIEYRGKVMLRQQFEVNGHFFKKPYPFVLFYSKFNGVEMCVDARTFGNDARFIRRSCTPNAEVRHMIADGMIHLCIYAVSAITKDAEVTIAFDYEYSNCNYKVDCACHKGNRNCPIQKRNPNATELPLLPPPPSLPTIGAETRRRKARRKELEMEQQNEASEENNDQQSQEVPEKVTVSSDHEEVDNPEEKPEEEKEEVIDDQENLAHSRRTREDRKVEAIMHAFENLEKRKKRRDQPLEQSNSDVEITTTTSETPVGEETKTEAPESEVSNSVSNVTIPSTPQSVGVNTRRSSQAGDIAAEKLVPKPPPAKPSRPRPKSRISRYRTSSAQRLKRQKQANAQQAELSQAALEEGGSNSLVTPTEAGSLDSSGENRPLTGSDPTVVSITGSHVNRAASKYPKTKKYLVTEWLNDKAEKQECPVECPLRITTDPTVLATTLNMLPGLIHSPLICTTPKHYIRFGSPFIPERRRRPLLPDGTFSSCKKRWIKQALEEGMTQTSSVPQETRTQHLYQSNENSSSSSICKDNADLLSPLKKWKSRYLMEQNVTKLLRPLSPVTPPPPNSGSKSPQLATPGSSHPGEEECRNGYSLMFSPVTSLTTASRCNTPLQFELCHRKDLDLAKVGYLDSNTNSCADRPSLLNSGHSDLAPHPSLGPTSETGFPSRSGDGHQTLVRNSDQAFRTEFNLMYAYSPLNAMPRADGLYRGSPLVGDRKPLHLDGGYCSPAEGFSSRYEHGLMKDLSRGSLSPGGERACEGVPSAPQNPPQRKKVSLLEYRKRKQEAKENSAGGGGDSAQSKSKSAGAGQGSSNSVSDTGAHGVQGSSARTPSSPHKKFSPSHSSMSHLEAVSPSDSRGTSSSHCRPQENISSRWMVPTSVERLREGGSIPKVLRSSVRVAQKGEPSPTWESNITEKDSDPADGEGPETLSSALSKGATVYSPSRYSYQLLQCDSPRTESQSLLQQSSSPFRGHPTQSPGYSYRTTALRPGNPPSHGSSESSLSSTSYSSPAHPVSTDSLAPFTGTPGYFSSQPHSGNSTGSNLPRRSCPSSAASPTLQGPSDSPTSDSVSQSSTGTLSSTSFPQNSRSSLPSDLRTISLPSAGQSAVYQASRVSAVSNSQHYPHRGSGGVHQYRLQPLQGSGVKTQTGLS
# partner: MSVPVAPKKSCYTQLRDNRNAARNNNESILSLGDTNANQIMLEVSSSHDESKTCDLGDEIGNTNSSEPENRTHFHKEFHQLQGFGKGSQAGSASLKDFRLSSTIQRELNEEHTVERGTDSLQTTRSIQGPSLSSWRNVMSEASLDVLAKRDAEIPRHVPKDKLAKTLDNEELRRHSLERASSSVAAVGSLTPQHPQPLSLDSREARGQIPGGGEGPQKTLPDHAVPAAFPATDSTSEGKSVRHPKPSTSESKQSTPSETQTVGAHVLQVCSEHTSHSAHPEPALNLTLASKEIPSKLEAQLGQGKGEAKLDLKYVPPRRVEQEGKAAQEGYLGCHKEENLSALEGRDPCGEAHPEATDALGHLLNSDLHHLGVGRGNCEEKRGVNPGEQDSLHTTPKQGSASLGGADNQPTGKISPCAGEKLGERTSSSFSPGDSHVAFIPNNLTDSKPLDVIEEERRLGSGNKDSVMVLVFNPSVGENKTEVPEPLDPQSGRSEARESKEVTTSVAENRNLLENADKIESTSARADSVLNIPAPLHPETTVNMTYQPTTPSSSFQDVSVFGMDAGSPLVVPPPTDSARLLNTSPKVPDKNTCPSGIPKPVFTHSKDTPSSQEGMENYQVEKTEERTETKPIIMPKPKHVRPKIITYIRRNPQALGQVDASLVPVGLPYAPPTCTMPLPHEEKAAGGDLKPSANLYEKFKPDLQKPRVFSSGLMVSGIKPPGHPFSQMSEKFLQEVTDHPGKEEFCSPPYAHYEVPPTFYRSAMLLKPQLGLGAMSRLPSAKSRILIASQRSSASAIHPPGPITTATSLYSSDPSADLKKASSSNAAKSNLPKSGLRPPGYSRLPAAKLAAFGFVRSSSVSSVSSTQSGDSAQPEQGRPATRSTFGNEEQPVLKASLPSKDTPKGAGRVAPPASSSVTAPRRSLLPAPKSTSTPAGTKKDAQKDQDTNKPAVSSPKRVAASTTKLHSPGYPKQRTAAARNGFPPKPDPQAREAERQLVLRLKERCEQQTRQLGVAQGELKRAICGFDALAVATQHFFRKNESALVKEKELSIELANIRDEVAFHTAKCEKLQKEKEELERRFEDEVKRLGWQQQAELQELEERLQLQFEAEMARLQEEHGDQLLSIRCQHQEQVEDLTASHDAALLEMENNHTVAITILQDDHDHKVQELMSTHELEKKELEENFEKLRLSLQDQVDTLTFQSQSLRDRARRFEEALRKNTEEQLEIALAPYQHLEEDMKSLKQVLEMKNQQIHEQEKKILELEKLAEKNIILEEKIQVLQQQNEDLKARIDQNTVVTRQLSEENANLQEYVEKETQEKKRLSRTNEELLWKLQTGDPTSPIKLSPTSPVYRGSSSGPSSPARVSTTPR
# B3: Late cornified envelope protein 1B (Homo sapiens), Q5T7P3 (parent)
# chain: MSCQQNQQQCQPPPKCIPKCPPKCLTPRCPPKCPPKCPPVSSCCSVSSGGCCGSSSGGSCGSSSGGCCSSGGGGCCLSHHRRRRSHCHRPQSSGCCSQPSGGSSCCGGGSGQHSGGCC
# partner: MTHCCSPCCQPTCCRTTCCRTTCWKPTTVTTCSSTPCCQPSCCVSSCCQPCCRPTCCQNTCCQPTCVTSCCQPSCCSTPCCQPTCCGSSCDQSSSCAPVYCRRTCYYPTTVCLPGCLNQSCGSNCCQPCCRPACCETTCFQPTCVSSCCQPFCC
# Variants of: B1
# Conditions: with caco2_human CALCOCO2, Q13137
row,effect of a mutation on the interaction,Variant
1,with no effect,P194T

# Variants of: B2
# Conditions: with mtus2_human MTUS2, Q5JR59
row,effect of a mutation on the interaction,Variant
1,with no effect,G669R

# Variants of: B3
# Conditions: with kra94_human KRTAP9-4, Q9BYQ2
row,effect of a mutation on the interaction,Variant
1,disrupting interaction strength,C16Y
